# Measured values published in the DeepSol protein solubility set.
# Assay: soluble on expression in E. coli; label from the status in PepcDB or PDB records
row,Sequence,soluble on expression in E. coli
1,MTLLASLRDWLKAQQLDAVLLSSRQNKQPHLGISTGSGYVVISRESAHILVDSRYYVEVEARAQGYQLHLLDATNTLTTIVNQIIADEQLQTLGFEGQQVSWETAHRWQSELNAKLVSATPDVLRQIKTPEEVEKIRLACGIADRGAEHIRRFIQAGMSEREIAAELEWFMRQQGAEKASFDTIVASGWRGALPHGKASDKIVAAGEFVTLDFGALYQGYCSDMTRTLLVNGEGVSAESHLLFNVYQIVLQAQLAAISAIRPGVRCQQVDDAARRVITEAGYGDYFGHNTGHAIGIEVHEDPRFSPRDTTTLQPGMLLTVEPGIYLPGQGGVRIEDVVLVTPQGAEVLYAMPKTVLLTGEA,soluble
2,GMSAQAKNKLEALKAMTTVVADTGDIEAIKQFKPVDATTNPSLILKAAKLANYQHLIEEAIDWALQIKGNDKNSQTTLENVGDKLAVNIGCEVLTSIPGVISTEVDARLSFDTQATVAKARKLIRLYQDAGIDSDRILIKIASTWEGIQAAKILEAEGIHCNLTLLFHFAQAQACAEAGTTLISPFVGRILDWYKANSGQSEYSASEDPGVVSVTEIYNFYKSHGFKTIVMGASFRNTGEIEELAGCDRLTISPELLAQLEADTSPLEQKLFPIKETKDTPELLTEASFRWAMNNDPMAHDKLADGIRRFAADQVTLESMLSKKISQRS,soluble
3,MDLIHEKVFVNRYHYDVRNHEWEKENGVPKTNVEVTFQLHHKDKEANNTSVVAVLQFMIVRDEFVISGIVSQMNHIQNRIVNNPKDFSQEEAEYLAAPLLDTLQRLTYEVTEIALDRPGINLEF,not soluble
4,DSLVFVQTDKSIYKPGQTVKFRVVSMDENFHPLNELIPLVYIQDPKGNRIAQWQSFQLEGGLKQFSFPLSSEPFQGSYKVVVQKKSGGRTEHPFTVEEFVLP,soluble
5,GPGSMQAPSEDDVARKEALKRRVEEHMLWKMTFFQSRPPPPFIPKCRRRPEPIANAPVHSFYKRALEIVSAEKEHMSSFCSSASPPTMTKTEPPEGDGAKSKQDVWKHKMMLEMERRNPYTDINIRTDPRSTVVVSSLHPKSLEEDIRLFGEQFGRVVSVRLICDHNGKSRRYGFVQFGLEAEARKAVAHSRKRRLHGHAVVMEMERGRLDRDFLPKRLAEAKRQIEGSSSLCSDKRQRMEGSVKCPPAVAAGRSLPIPVSDTRDEVDAFLDDIMNLT,not soluble
6,MRFIPLIVARPEVQMAIDEAILIARSEGRVPDTVRLYVFKPSSVTIGRFQSVRYDVNLEKAKELGIPVVRRITGGGSVFHDEYGEITYSVVISEDYHPMLKNIQDSYRFLAGPLVDALKDLGIEAEFSGLNDIVVRGKKISGSAQTRRRGIILQHGTLMYATRLEILGSVLKVSKEKLKDKGVKSIFERVTTLEREGIKVGRNEMYEVLRNSFFRAFPLDEGELTEYELELVEKLIEERYGNDKWNFQKLEHHHHHH,soluble
7,EGQEKFKDLTYIAASVCNTEHAFITLLNKDNLVFLSSFKPPLAEITRDLSFCEITIQSDTVHEVQDARVHERFSNNPYVIGEPYLRYYCGAPLIDENGYKLGALCVLDTNPRTLTENQKKSLVLLAKQV,not soluble
8,GMSGDILNDIVAACLELERKASSVFKMFAAHAGSDEARRFWETVADETRHHSAVYERLQERGGRENLPIIIYKPAETLEELEMIGKSIDEQVERYTEAPSSEAACLLGFRLQLYLLHPAFASLCRLTRDASGEDLPDIGYGRYLRRFIDGIGSCGLATAETELLGEALFRLWNEARQLAAQSHFDALTGVMTRAGFFKTVGSLAYAAQRSGSNVGIMLIDLDYFKLVGDNYGHQTGDRILQLVAETITSHLRRSDVVGRYDGDEFVVYLSPVEPASLRTVAENLRRSIEEESARMVPVTASIGVAQGILGTDVDGGIEELVRLADECLMQAKYTGKNKVVVK,soluble
9,MRKWETFIIDYMNKSKKTFVKTIDIEHHLKTLLKQEYDDDGGYFKYSSTLKNMVEEEKIQPVKARGHNHQTPPVFNEYRLVKKERRTNPTHIKKLMTDYLLFNMTAFYDEAEFEKWKFYIDRVHAFLTQNSDTKNNILKANERSFELFRNEKFLLDKEGTKFLANLGLTLSDLNCRRTYEPFVEYQPNPSKKPKNILIIENRDTFDSIKELMIDGIDTWSRITFDMVIYGEGDKIQRSFYFLEEYELEDYEVYYFGDLDARGIHICSELIKIDNRVKPFIPFYIELLNRYGHEPSTRTIERKLKQTIIDDSLKLFSSFFEGDYIDELKRYTDIIQNVQIYIPQEGLNLVILRKLGERR,not soluble
10,MYTIAALYHFTRFADPADLKPALLDLCLAQGVKGTLLLAKEGINGTIAGPRAGIDAVLAHIRALPGCSDLEWKEATSDHPPFGKMKVRLKQEIVTMGQPDVDPRARVGHYVEPEDWNDLIRSDDVVLIDTRNDYEVAIGTFEGAIDPMTESFRDFPAWWEANKERFHNKRVAMFCTGGIRCEKSTNYLLGQGVEDVYHLKGGILRYLEEVPAENSTWQGECFVFDNRVSVGHGLVEGPHELCHGCRRPILPEDRNRPEYEHGVSCHLCIDETSEADKMRFRERQKQIALARARGEDHLATH,not soluble
11,MKVVELKNVKKIYPDGTIALKGVSLSVEEGEFLGVMGPSGSGKSTLLHLIGGLDKPSEGIVKVFGKEINHLDEDELAEMRKRKIAYVFQFYYLLEDFSVLENLTLIGELAGIKNPKKKALELLDFLRLSHRINHKPYQLSGGEQQRVAIGRALMVEPKLILADEPTGNLDSKEGFRIFELFKELNEKGITFVVATHNDSLKPFFGRIINLRDGEIVTQR,soluble
12,GLLDLKSMIEKVTGKNALTNYGFYGCYCGWGGRGTPKDGTDWCCWAHDHCYGRLEEKGCNIRTQSYKYRFAWGVVTCEPGPFCHVNLCACDRKLVYCLKRNLRSYNPQYQYFPNILCS,soluble
13,MSTQSILTKPTEATAFQPDQVVRILETVLLTTPEPLSISDLKKLFEGNIDKKTLHESLTILSEKWHDSGINLVSVAGGWRFQSKPEMQVFLDRLNPQRPPRYSRAVMETLAIIAYRQPVTRGDIEEIRGVAVSTQIIKTLESRGWIETIGQRDIPGKPYLYATTRHFLDDLNLQSLEQLPSLDSFNSLDLSADEAESVDTDTTTIQESGEPASHEPTQLL,not soluble
14,MFGGDVSAASVLPSHPISGSCDGFQAEGSDHHHSTMTPFQESQRNVYQILYGHPANDDFPRPITPLQITIPEGDASPTVPVSCGVVNGKMHLNLFMCPGIHQPCIEVGNDLLSPKQFTIRGDKERQKDWKASIRVGRSSLRTHMEAMTIDFYEHMNRCSGKCQSRNYVNAPSEEVLQARKSKRTSEAGQLKYEIENEMAGKEADNDDNRKSAKKARGRPRGSVNKPRQMVKMEPQDDRFFEEFFIDAPPLQSMSSNEEPTSSNKESNECTPFNDILNCLQNDPMNFWSQMQQTGVIGHFCDDIIVSAINLKQSVMDNPVTPTTANMLTRTAFALGIPPVVVHRVQSIERNAYQQRKHDEMFNDIQSTLAEEHSVKYQPRTSSSSQESLHTAREFTEEKVEELIDVCKYDDYPESECLPGPSHIQ,not soluble
15,MKRVLSGIQPSGEIHIGNYLGAIKQWVAIGEKWGRDAFFCIVDYHALTNPLAYDPSTLAQRTFEAALVNIAAGLDPEKVTLFVQSHVPEHTELSWVFTTLTPLGDLTRMTQFKDKASKQETVWSGLLMYPVLQAADILIYKADTVPVGEDQVQHIELTREIARRFNHLFGETFPEPQALLNPEAPRVPGIDGKAKMSKSLGNTIGLLEPEESIWQKIQHLPDDPQRIRLSDPGDPERTILFTYLSYFAPKDLVEALKEEYRKAGVGTYVVKRILFDHLMEALRPIRERAEALKKDPDYVMDALLEGAKRARAVAQATMEEVREKVGLLLPRKRPVLR,soluble
16,MSEKPLTKTDYLMRLRRCQTIDTLERVIEKNKYELSDNELAELTMNKLYDKIPSSVWKFIRLAVFYSAADHR,not soluble
17,GMQATTATPHDIVFLFDCDNTLLDNDHVLADLRAHMMREFGAQNSARYWEIFETLRTELGYADYLGALQRYRLEQPRDTRLLLMSSFLIDYPFASRVYPGALNALRHLGARGPTVILSDGDVVFQPRKIARSGLWDEVEGRVLIYIHKELMLDQVMECYPARHYVMVDDKLRILAAMKKAWGARLTTVFPRQGHYAFDPKEISSHPPADVTVERIGDLVEMDAEWLLAEKR,soluble
18,MNKLYIGNLSPAVTADDLRQLFGDRKLPLAGQVLLKSGYAFVDYPDQNWAIRAIETLSGKVELHGKIMEVDYSVSKKLRSRKIQIRNIPPHLQWEVLDGLLAQYGTVENVEQVNTDTETAVVNVTYATREEAKIAMEKLSGHQFENYSFKISYIPDEEVSSPSPPQRAQRGDHSSREQGHAPGGTSQARQIDFPLRILVPTQFVGAIIGKEGLTIKNITKQTQSRVDIHRKENSGAAEKPVTIHATPEGTSEACRMILEIMQKEADETKLAEEIPLKILAHNGLVGRLIGKEGRNLKKIEHETGTKITISSLQDLSIYNPERTITVKGTVEACASAEIEIMKKLREAFENDMLAVNQQANLIPGLNLSALGIFSTGLSVLSPPAGPRGAPPAAPYHPFTTHSGYFSSLYPHHQFGPFPHHHSYPEQEIVNLFIPTQAVGAIIGKKGAHIKQLARFAGASIKIAPAEGPDVSERMVIITGPPEAQFKAQGRIFGKLKEENFFNPKEEVKLEAHIRVPSSTAGRVIGKGGKTVNELQNLTSAEVIVPRDQTPDENEEVIVRIIGHFFASQTAQRKIREIVQQVKQQEQKYPQGVASQRSK,soluble
19,MEMYFKRMKDEWTGLVEQADPPIRAKAAEIAVAHAHYLSIEFYRIVRIDPHAEEFLSNEQVERQLKSAMERWIINVLSAQVDDVERLIQIQHTVAEVHARIGIPVEIVEMGFRVLKKILYPVIFSSDYSAAEKLQVYHFSINSIDIAMEVMTRAFTFSDSSASKELEHHHHHH,soluble
20,MTDHLRGFYKAEFETARKKAHGVIFLHDGKIQGGDSTFLYSGAYSQSGLTVAGNLRGVRYSSDHSRLSVFGIEPFEITFDGVAKDGYVTIEGYAHETPSLPLKAILTRVDD,not soluble
21,MDRAPVSSRRPCASQDPQRRPLCREEEGATPTALAVSSTTLGGRGGAHMCSCTVSSPNREGTCSSNILSYTLTHSTSPVVPWGCGRQPNHLQAPPRLAPLTESPIVARGFGPPPIAPAPLALAESSEHALCAPQLTFTAGAPGGTCLCSARSALPLLPFSSVLTASQRATPVPVWRRSKPLTRLPATTLGPTLSGNSGSPDDVVVALSDASMPKGETGEWMCAEASLQPSAAEPTPNAGSAVRHVDYQAAATQTGCVGSSLAAKVATESSQMALPDALAHLVEPPQGASAPSKTATDQLVNAPVGDIELRKRREEDSSDARASLSSALSSLGHPSNHNVHSSVDGVLWAHEAPEQPAYAHQHQLPAIFSQLVQDLLAAEPRADVEGDDDLLERWIQSWFENRCMTQPLQQSRSNSMKHLRTLQEAAVGAIANGAYVQGARSSNYVEPREKPAVDKNVGDATHAGPAARPAAGPSTTISASAAVTRTTTKSASAQLFPSSTAASPPHQYVPLTVEYSCSTLQSRMTSGASQRATSPPKPPQAQPLPVSPGTLHTAGASSTPGPPPHSAADGGGGVLAAVVGLSSPPQQPQQQPQPAKPLSGGPHLPAPASTRSMSSKQTVVAAAALAGGGEGDKGASGARPKLATTACAVFAHSSSSSAPKEAAHPHE,soluble
22,MGSDKIHHHHHHMIGLNCKPLYIENAENQLYNPTLNIKTTMTYLETAAQFYSEVAQTPQVGLCCVQSTPLQLPGLKIPLSMQEMNYGCGTTVHPTELGKQPTVLYVGVGGGLEALQFAYFSRRPGAVIAVDPVAAMREAAARNLEMALTDNPWFESSFVEIREGDAFNLPVADGSVDIVAQNCLFNIFEPEDLTRALKEAYRVLKCGGRLQMSDPIATSPIPAHLQQDERLRAMCLSGALTYEEYTQRIIDAGFGQIEIRARRPYRLLDSQTYNLETHLLLESLDSVSFKVPIPEDGACIFTGKTAIYAGCEDFFDDKAGHILQRGIPATVCDKTAAKLATVKPKEVIITDSTWHYNGGGCC,not soluble
